Data: PMC5814804
Where two headings read alike, the source gives them in different places.

Tests used:
[1] = target: Thermotoga maritima TsaB2D2 complex (Thermotoga maritima) (UniProt Q9WZX7); assay: ITC
[2] = target: Thermotoga maritima TsaB2D2 complex (Thermotoga maritima) (UniProt Q9WZX7); assay: ITC; remark: listed apart in the source
[3] = target: Thermotoga maritima TsaB2D2 complex (Thermotoga maritima) (UniProt Q9WZX7); assay: SEC
[4] = target: Thermotoga maritima TsaB2D2 complex (Thermotoga maritima) (UniProt Q9WZX7); assay: SEC; remark: listed apart in the source
[5] = target: Thermotoga maritima TsaB2D2 complex (Thermotoga maritima) (UniProt Q9WZX7); assay: ITC; remark: listed apart in the source

Thermotoga maritima TsaB2D2 complex (Thermotoga maritima), sequence (Q9WZX7 whole entry, chain 1 of 2): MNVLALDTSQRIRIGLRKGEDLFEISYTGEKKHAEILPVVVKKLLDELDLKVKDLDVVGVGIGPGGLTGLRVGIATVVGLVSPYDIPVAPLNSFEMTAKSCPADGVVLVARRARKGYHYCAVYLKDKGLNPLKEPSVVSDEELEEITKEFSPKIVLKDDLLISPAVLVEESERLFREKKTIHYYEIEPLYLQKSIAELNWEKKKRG
Thermotoga maritima TsaB2D2 complex (Thermotoga maritima), sequence (Q9WXZ2 whole entry, chain 2 of 2, further chain): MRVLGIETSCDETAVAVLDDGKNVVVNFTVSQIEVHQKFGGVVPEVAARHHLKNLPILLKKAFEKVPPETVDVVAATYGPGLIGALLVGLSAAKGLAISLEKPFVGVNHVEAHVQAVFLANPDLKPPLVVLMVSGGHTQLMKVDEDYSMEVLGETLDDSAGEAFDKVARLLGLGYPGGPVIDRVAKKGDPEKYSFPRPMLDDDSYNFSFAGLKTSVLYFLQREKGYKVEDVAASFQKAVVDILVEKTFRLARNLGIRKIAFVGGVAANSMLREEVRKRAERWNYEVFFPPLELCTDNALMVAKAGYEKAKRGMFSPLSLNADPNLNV

| Kd [1] [nM] | dH [1] [kcal/mol] | stoichiometry N [1] | Kd [2] [nM] | dH [2] [kcal/mol] | stoichiometry N [2] | stoichiometry N (TsaE per TsaB2D2) [3] | stoichiometry N (TsaE per TsaB2D2) [4] | Kd [5] [nM] | dH [5] [kcal/mol] | stoichiometry N [5] | Substance |
| --- | --- | --- | --- | --- | --- | --- | --- | --- | --- | --- | --- |
| 340 | 7.44 | 2.72 | 1300 | 11.9 | 2.11 | 1 | 2 | 1100 | 1.54 | 2.16 | Thermotoga maritima TsaE (natural protein) |
| 2400 | 11.9 | 1.91 | 1100 | 9.3 |  |  |  |  |  |  | Thermotoga maritima TsaE E108A mutant (natural protein) |
| 1100 | 10.3 | 2 | 1400 | 8 |  |  |  |  |  |  | Thermotoga maritima TsaE T42A mutant (natural protein) |
